# Reference: patent publication US20220372107A1
# Tests used:
# activin B = target: T1, activin B (UniProt P09529)
# T1 sequence (looked up): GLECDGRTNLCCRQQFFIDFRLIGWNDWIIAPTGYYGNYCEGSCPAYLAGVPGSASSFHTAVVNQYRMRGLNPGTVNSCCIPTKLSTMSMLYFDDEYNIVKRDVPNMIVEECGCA
# BMP10 = target: T2, BMP10 (UniProt O95393)
# T2 sequence (looked up): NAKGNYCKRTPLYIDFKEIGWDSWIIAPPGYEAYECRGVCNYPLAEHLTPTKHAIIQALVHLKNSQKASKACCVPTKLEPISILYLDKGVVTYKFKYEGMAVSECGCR
# activin A = target: T3, activin A (UniProt P08476)
# T3 sequence (looked up): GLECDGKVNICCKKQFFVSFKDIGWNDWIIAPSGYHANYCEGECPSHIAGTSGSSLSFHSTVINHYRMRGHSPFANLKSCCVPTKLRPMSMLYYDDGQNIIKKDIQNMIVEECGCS
# GDF11 = target: T4, GDF11 (UniProt O95390)
# T4 sequence (looked up): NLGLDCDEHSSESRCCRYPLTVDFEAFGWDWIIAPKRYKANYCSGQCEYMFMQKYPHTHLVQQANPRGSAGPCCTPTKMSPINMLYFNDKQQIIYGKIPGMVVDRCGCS
# TGFβ1 (human) = TGFβ1 (human) (UniProt P01137)
# Chain of UniProt P01137 (P01137 279-390 limits assumed): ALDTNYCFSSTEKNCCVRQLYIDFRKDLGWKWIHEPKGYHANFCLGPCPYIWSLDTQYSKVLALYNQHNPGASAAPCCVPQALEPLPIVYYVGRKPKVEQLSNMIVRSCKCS
# TGFβ2 (human) = target: T5, TGFβ2 (human) (UniProt P61812)
# T5 sequence (looked up): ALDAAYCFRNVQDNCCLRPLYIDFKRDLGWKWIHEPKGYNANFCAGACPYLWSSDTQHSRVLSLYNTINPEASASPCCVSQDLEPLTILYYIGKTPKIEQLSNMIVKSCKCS
# TGFβ3 (human) = target: T6, TGFβ3 (human) (UniProt P10600)
# T6 sequence (looked up): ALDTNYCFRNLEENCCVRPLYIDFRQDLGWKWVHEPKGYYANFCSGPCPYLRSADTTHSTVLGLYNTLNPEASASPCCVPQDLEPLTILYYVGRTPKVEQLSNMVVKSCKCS
Substance,IC50 (CAGA12 luciferase reporter gene assay) (activin B),IC50 (CAGA12 luciferase reporter gene assay) (BMP10),IC50 (CAGA12 luciferase reporter gene assay) (activin A),IC50 (CAGA12 luciferase reporter gene assay) (GDF11),IC50 (CAGA12 luciferase reporter gene assay) (TGFβ1 (human)),IC50 (CAGA12 luciferase reporter gene assay) (TGFβ2 (human)),IC50 (CAGA12 luciferase reporter gene assay) (TGFβ3 (human))
TβRII-Fc homodimer (Fc fusion),> 20 µg/mL,> 20 µg/mL,> 20 µg/mL,> 20 µg/mL,0.017 nM,> 20 µg/mL,–
ActRIIA-Fc:TβRII-Fc heterodimer (Fc fusion),1.16 nM,> 20 µg/mL,1.28 nM,18.1 nM,0.21 nM,> 20 µg/mL,0.39 nM
